Series [1] deals with N[C@@H](CC(=O)O)C(=O)O. Briefly: cells, lysate or membranes named. The following applies: 37.0 °C.
Series [2] concerns O=C(O)CNCP(=O)(O)O. Description: cells, lysate or membranes named. To be noted: 37.0 °C.
[3] abbreviates: other: SEQ ID NO:1, pH 7.0, non-varied substrate saturating.
Where [4] appears, read: other: SEQ ID NO:2, pH 7.0, non-varied substrate saturating.
[5] abbreviates: other: SEQ ID NO:3, pH 7.0, non-varied substrate saturating.
The mark [6] stands for this setting: other: SEQ ID NO:4, pH 7.0, non-varied substrate saturating.
[7] abbreviates: other: SEQ ID NO:5, pH 7.0, non-varied substrate saturating.
Where [8] appears, read: other: SEQ ID NO:6, pH 7.0, non-varied substrate saturating.
Where [9] appears, read: other: SEQ ID NO:8, pH 7.0, non-varied substrate saturating.
The mark [10] stands for this setting: other: SEQ ID NO:9, pH 7.0, non-varied substrate saturating.
Where [11] appears, read: other: SEQ ID NO:10, pH 7.0, non-varied substrate saturating.

As a reminder, the Km is the substrate concentration at which the rate is half of its maximum. In general, kcat refers to the number of substrate molecules converted per active site and unit of time at saturation. In general, kcat/Km refers to the turnover number divided by the Michaelis constant. Consider “GLYAT (glyphosate-N-acetyltransferase), parent, SEQ ID NO:1 (Bacillus licheniformis DSM 13 = ATCC 14580; E119R/E14D/E65Q/E67K/E68K/G37R/G38S/I132T/I135V/I15L/I19V/I53V/I91V/K101R/K144R/K58Q/L105M/L106I/L145I/L26I/L36T/L97I/M75V/R47G/R92K/T33S/T89S/V114A/Y130F/Y31F/Y45F)”, for which, in series [1] (setting [3]), the Michaelis constant (Km) turned out to be 32.9 mM, the kcat was 7.3 s⁻¹ and the kcat/Km was found to be 229 M⁻¹ s⁻¹. Further, in series [2] (setting [3]), the Km is given as 1.36 mM, the kcat was 24.23 s⁻¹ and the catalytic efficiency (kcat/Km) worked out at 18000 M⁻¹ s⁻¹.
Consider “GLYAT (glyphosate-N-acetyltransferase), parent, SEQ ID NO:2 (Bacillus licheniformis DSM 13 = ATCC 14580; A28V/D131E/E119K/E63D/E65Q/E67Q/E68K/E83D/E96Q/G37R/I132T/I135V/I15L/I2L/K101R/K144R/K58Q/L105M/L97I/R18K/T89S/V114A/Y130F/Y45F)”, for which, in series [1] (setting [4]), the Km amounted to 47.6 mM, the catalytic constant (kcat) amounted to 0.887 s⁻¹ and the kcat/Km was 18.7 M⁻¹ s⁻¹. For the same substance, in series [2] (setting [4]), the Michaelis constant (Km) turned out to be 1.38 mM, the kcat was determined as 4.52 s⁻¹ and the kcat/Km amounted to 3270 M⁻¹ s⁻¹.
As to “GLYAT variant SEQ ID NO:3 (derived from SEQ ID NO:1 and 2) (Bacillus licheniformis DSM 13 = ATCC 14580; A28V/D131E/E119K/E14D/E65Q/E67K/E68K/E83D/G37R/I132T/I135V/I15L/I19V/I2L/I53V/I91V/K101R/K144R/K58Q/L105M/L106I/L26I/L97I/M75V/R47G/R92K/T89S/V114A/Y130F/Y45F)”, in series [1] (setting [5]), the Km amounted to 35.1 mM, the kcat was 2.72 s⁻¹ and the catalytic efficiency (kcat/Km) came to 77.8 M⁻¹ s⁻¹. In series [2] (setting [5]), the Michaelis-Menten constant (Km) was 0.60 mM, the kcat was determined as 11.6 s⁻¹ and the specificity constant (kcat/Km) amounted to 19320 M⁻¹ s⁻¹.
In the case of “GLYAT variant SEQ ID NO:4 (derived from SEQ ID NO:1 and 2) (Bacillus licheniformis DSM 13 = ATCC 14580; D131E/E14D/E65Q/E67K/E68K/G37R/G38S/I132T/I135A/I15L/I19V/I53V/I91V/K101R/K144R/K58Q/L105M/L26I/L36T/L97I/M75V/R47G/R92K/T33S/T89S/V114A/Y130F/Y31F/Y45F)”, in series [1] (setting [6]), the Km stood at 78.3 mM, the kcat was determined as 2.27 s⁻¹ and the kcat/Km came out at 29 M⁻¹ s⁻¹. For the same substance, in series [2] (setting [6]), the Km is on record as 1.96 mM, the kcat turned out to be 26.88 s⁻¹ and the kcat/Km was found to be 13800 M⁻¹ s⁻¹.
On to “GLYAT variant SEQ ID NO:5 (derived from SEQ ID NO:1 and 2) (Bacillus licheniformis DSM 13 = ATCC 14580; A28V/D131E/E14D/E65Q/E67K/E68K/G37R/I132T/I135A/I15L/I19V/I53V/I91V/K101R/K144R/K58Q/L105M/L106I/L26I/L97I/M75V/R47G/R92K/T89S/V114A/Y130F/Y45F)”, for which, in series [1] (setting [7]), the Km came out at 79.1 mM, the catalytic constant (kcat) turned out to be 3.58 s⁻¹ and the kcat/Km came out at 45.3 M⁻¹ s⁻¹. Further, in series [2] (setting [7]), the Km is 0.23 mM, the kcat was 16.98 s⁻¹ and the kcat/Km amounted to 76470 M⁻¹ s⁻¹.
On to “GLYAT variant SEQ ID NO:6 (derived from SEQ ID NO:1 and 2) (Bacillus licheniformis DSM 13 = ATCC 14580; A28V/D131E/E119K/E14D/E65Q/E67K/E68K/G37R/I132T/I135A/I15L/I19V/I53V/I91V/K101R/K144R/K58Q/L105M/L106I/L26I/L36T/L97I/M75A/R47G/R92K/T89S/V114A/V4I/Y130F/Y45F/Y46C)”, for which, in series [1] (setting [8]), the Michaelis-Menten constant (Km) was found to be 66.8 mM, the kcat came out at 0.183 s⁻¹ and the kcat/Km was 2.67 M⁻¹ s⁻¹. In series [2] (setting [8]), the Km was 2.24 mM, the kcat amounted to 11.2 s⁻¹ and the specificity constant (kcat/Km) was 5130 M⁻¹ s⁻¹.
With “GLYAT variant SEQ ID NO:8 (derived from SEQ ID NO:1 and 2) (Bacillus licheniformis DSM 13 = ATCC 14580; A28V/D131E/E119K/E14D/E65Q/E67K/E68K/E83D/G37R/G38S/I132T/I135A/I15L/I53V/I91V/K101R/K144R/K58Q/L105M/L106I/L26I/L36T/L97I/M75V/N8S/R47G/R92K/T89S/V114A/Y130F/Y45F)”, in series [1] (setting [9]), the Michaelis-Menten constant (Km) is recorded as 60.0 mM, the kcat was 1.42 s⁻¹ and the specificity constant (kcat/Km) worked out at 23.5 M⁻¹ s⁻¹. For the same substance, in series [2] (setting [9]), the Michaelis constant (Km) is recorded as 0.39 mM, the kcat was determined as 11.4 s⁻¹ and the kcat/Km turned out to be 29650 M⁻¹ s⁻¹.
Turning to “GLYAT variant SEQ ID NO:9 (derived from SEQ ID NO:1 and 2) (Bacillus licheniformis DSM 13 = ATCC 14580; A28V/D131E/E119K/E14D/E65Q/E67K/E68K/G37R/G38S/I132T/I135A/I15L/I19V/I53V/I91V/K101R/K144R/K58Q/L105M/L26I/L97I/M75V/R47G/R92K/T89S/V114A/Y130F/Y45F)”, in series [1] (setting [10]), the Km is recorded as 78.7 mM, the kcat stood at 2.58 s⁻¹ and the kcat/Km was found to be 33.3 M⁻¹ s⁻¹. Also, in series [2] (setting [10]), the Km was found to be 0.25 mM, the kcat is 11.6 s⁻¹ and the catalytic efficiency (kcat/Km) amounted to 45430 M⁻¹ s⁻¹.
Turning to “GLYAT variant SEQ ID NO:10 (derived from SEQ ID NO:1 and 2) (Bacillus licheniformis DSM 13 = ATCC 14580; A28V/D131E/E14D/E65Q/E67K/E68K/G37R/G38S/H61R/I132T/I135A/I15L/I19V/I53V/I91V/K101R/K144R/K58Q/L105M/L106I/L26I/L97I/M75V/R47G/R92K/T89S/V114A/Y130F/Y45F)”, in series [1] (setting [11]), the Michaelis-Menten constant (Km) is reported as 89.3 mM, the turnover number (kcat) is 2.48 s⁻¹ and the kcat/Km worked out at 28.2 M⁻¹ s⁻¹. In series [2] (setting [11]), the Km came to 0.37 mM, the kcat is 11.6 s⁻¹ and the catalytic efficiency (kcat/Km) is 31680 M⁻¹ s⁻¹.

Values taken from patent US11236354B2, “Glyphosate-n-acetyltransferase (GLYAT) sequences and methods of use” (PIONEER HI-BRED INTERNATIONAL, INC., priority 2013, dated 2022).
